First the molecules themselves.
T1: Human IL-33 Flag®His (human)
T1 sequence: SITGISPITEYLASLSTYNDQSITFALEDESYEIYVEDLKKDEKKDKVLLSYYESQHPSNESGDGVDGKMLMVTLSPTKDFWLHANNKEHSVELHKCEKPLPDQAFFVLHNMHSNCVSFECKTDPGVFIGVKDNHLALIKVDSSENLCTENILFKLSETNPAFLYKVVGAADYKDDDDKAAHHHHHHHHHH

B1: IL33-02 (ligand)
chain: MHHHHHHHHHHAAGLNDIFEAQKIEWHEAAIEGRSITGISPITEYLASLSTYNDQSITFALEDESYEIYVEDLKKDEKKDKVLLSYYESQHPSNESGDGVDGKMLMVTLSPTKDFWLHANNKEHSVELHKSEKPLPDQAFFVLHNMHSNCVSFECKTDPGVFIGVKDNHLALIKVDSSENLCTENILFKLSET
B2: IL33-05 (ligand)
chain: MHHHHHHHHHHAAGLNDIFEAQKIEWHEAAIEGRSITGISPITEYLASLSTYNDQSITFALEDESYEIYVEDLKKDEKKDKVLLSYYESQHPSNESGDGVDGKMLMVTLSPTKDFWLHANNKEHSVELHKCEKPLPDQAFFVLHNMHSNCVSFECKTDPGVFIGVKDNHLALIKVDSSENLSTENILFKLSET
B3: IL33-15 (ligand)
chain: MHHHHHHHHHHAAGLNDIFEAQKIEWHEAAIEGRSITGISPITEYLASLSTYNDQSITFALEDESYEIYVEDLKKDEKKDKVLLSYYESQHPSNESGDGVDGKMLMVTLSPTKDFWLHANNKEHSVELHKCEKPLPDQAFFVLHNMHSNSVSFESKTDPGVFIGVKDNHLALIKVDSSENLSTENILFKLSET
B4: IL33-14 (ligand)
chain: MHHHHHHHHHHAAGLNDIFEAQKIEWHEAAIEGRSITGISPITEYLASLSTYNDQSITFALEDESYEIYVEDLKKDEKKDKVLLSYYESQHPSNESGDGVDGKMLMVTLSPTKDFWLHANNKEHSVELHKSEKPLPDQAFFVLHNMHSNCVSFESKTDPGVFIGVKDNHLALIKVDSSENLSTENILFKLSET
B5: IL33-12 (ligand)
chain: MHHHHHHHHHHAAGLNDIFEAQKIEWHEAAIEGRSITGISPITEYLASLSTYNDQSITFALEDESYEIYVEDLKKDEKKDKVLLSYYESQHPSNESGDGVDGKMLMVTLSPTKDFWLHANNKEHSVELHKSEKPLPDQAFFVLHNMHSNSVSFESKTDPGVFIGVKDNHLALIKVDSSENLCTENILFKLSET
B6: IL33-13 (ligand)
chain: MHHHHHHHHHHAAGLNDIFEAQKIEWHEAAIEGRSITGISPITEYLASLSTYNDQSITFALEDESYEIYVEDLKKDEKKDKVLLSYYESQHPSNESGDGVDGKMLMVTLSPTKDFWLHANNKEHSVELHKSEKPLPDQAFFVLHNMHSNSVSFECKTDPGVFIGVKDNHLALIKVDSSENLSTENILFKLSET
B7: IL33-06 (ligand)
chain: MHHHHHHHHHHAAGLNDIFEAQKIEWHEAAIEGRSITGISPITEYLASLSTYNDQSITFALEDESYEIYVEDLKKDEKKDKVLLSYYESQHPSNESGDGVDGKMLMVTLSPTKDFWLHANNKEHSVELHKSEKPLPDQAFFVLHNMHSNSVSFECKTDPGVFIGVKDNHLALIKVDSSENLCTENILFKLSET
B8: IL33-07 (ligand)
chain: MHHHHHHHHHHAAGLNDIFEAQKIEWHEAAIEGRSITGISPITEYLASLSTYNDQSITFALEDESYEIYVEDLKKDEKKDKVLLSYYESQHPSNESGDGVDGKMLMVTLSPTKDFWLHANNKEHSVELHKCEKPLPDQAFFVLHNMHSNCVSFESKTDPGVFIGVKDNHLALIKVDSSENLSTENILFKLSET
B9: IL33-08 (ligand)
chain: MHHHHHHHHHHAAGLNDIFEAQKIEWHEAAIEGRSITGISPITEYLASLSTYNDQSITFALEDESYEIYVEDLKKDEKKDKVLLSYYESQHPSNESGDGVDGKMLMVTLSPTKDFWLHANNKEHSVELHKSEKPLPDQAFFVLHNMHSNCVSFESKTDPGVFIGVKDNHLALIKVDSSENLCTENILFKLSET
B10: IL33-09 (ligand)
chain: MHHHHHHHHHHAAGLNDIFEAQKIEWHEAAIEGRSITGISPITEYLASLSTYNDQSITFALEDESYEIYVEDLKKDEKKDKVLLSYYESQHPSNESGDGVDGKMLMVTLSPTKDFWLHANNKEHSVELHKCEKPLPDQAFFVLHNMHSNSVSFECKTDPGVFIGVKDNHLALIKVDSSENLSTENILFKLSET
B11: IL33-03 (ligand)
chain: MHHHHHHHHHHAAGLNDIFEAQKIEWHEAAIEGRSITGISPITEYLASLSTYNDQSITFALEDESYEIYVEDLKKDEKKDKVLLSYYESQHPSNESGDGVDGKMLMVTLSPTKDFWLHANNKEHSVELHKCEKPLPDQAFFVLHNMHSNSVSFECKTDPGVFIGVKDNHLALIKVDSSENLCTENILFKLSET
B12: IL33-04 (ligand)
chain: MHHHHHHHHHHAAGLNDIFEAQKIEWHEAAIEGRSITGISPITEYLASLSTYNDQSITFALEDESYEIYVEDLKKDEKKDKVLLSYYESQHPSNESGDGVDGKMLMVTLSPTKDFWLHANNKEHSVELHKCEKPLPDQAFFVLHNMHSNCVSFESKTDPGVFIGVKDNHLALIKVDSSENLCTENILFKLSET
B13: IL33-10 (ligand)
chain: MHHHHHHHHHHAAGLNDIFEAQKIEWHEAAIEGRSITGISPITEYLASLSTYNDQSITFALEDESYEIYVEDLKKDEKKDKVLLSYYESQHPSNESGDGVDGKMLMVTLSPTKDFWLHANNKEHSVELHKCEKPLPDQAFFVLHNMHSNSVSFESKTDPGVFIGVKDNHLALIKVDSSENLCTENILFKLSET
B14: IL33-16 (ligand)
chain: MHHHHHHHHHHAAGLNDIFEAQKIEWHEAAIEGRSITGISPITEYLASLSTYNDQSITFALEDESYEIYVEDLKKDEKKDKVLLSYYESQHPSNESGDGVDGKMLMVTLSPTKDFWLHANNKEHSVELHKSEKPLPDQAFFVLHNMHSNSVSFESKTDPGVFIGVKDNHLALIKVDSSENLSTENILFKLSET
B15: IL330259 scFv (scFv, part only; not given: linker, domain order and tags, V domains shown, not shown: another chain or arm of the molecule; small tags and cut ends)
VH: EVQLLESGGGLVQPGGSLRLSCAASGFTFSSYAMSWVRQAPGKGLEWVSASTPWQGSTYYADSVKGRFTISRDNSKNTLYLQMNSLRAEDTAVYYCVRVVAGYFDSWGRGTLVTVSS
VL: SYVLTQPPSVSVSPGQTARITCSGDALPKQYAHWYQQKPGQAPALVIYKDTERPSGIPERFSGSSSGTTVTLTISGVQAEDEADYYCQSADSSGASRVFGGGTKVTVL
B16: IL330020 scFv (scFv, part only; not given: linker, domain order and tags, V domains shown, not shown: another chain or arm of the molecule; small tags and cut ends)
VH: QVQLVQSGAEVKKPGASVKVSCKASGYTFTSYGISWVRQAPGQGLEWMGWISDYQGYTKYAEKFQGRVTMTTDTSTNTAYMELRSLRSDDTAVYYCARLYSSGWIRQYHFDYWGRGTLVTVSS
VL: SYELTQPPSVSVSPGQTASITCSGDNLKDKYVSWYQQKPGQAPVLVLYQDRKRPSGIPERFSGSNSGNTATLTISGTQAMDEADYYCQAWDSGTAFGGGTKVTVL

Chain of ST2 on human umbilical vein endothelial cells (human) (Q01638 19-556): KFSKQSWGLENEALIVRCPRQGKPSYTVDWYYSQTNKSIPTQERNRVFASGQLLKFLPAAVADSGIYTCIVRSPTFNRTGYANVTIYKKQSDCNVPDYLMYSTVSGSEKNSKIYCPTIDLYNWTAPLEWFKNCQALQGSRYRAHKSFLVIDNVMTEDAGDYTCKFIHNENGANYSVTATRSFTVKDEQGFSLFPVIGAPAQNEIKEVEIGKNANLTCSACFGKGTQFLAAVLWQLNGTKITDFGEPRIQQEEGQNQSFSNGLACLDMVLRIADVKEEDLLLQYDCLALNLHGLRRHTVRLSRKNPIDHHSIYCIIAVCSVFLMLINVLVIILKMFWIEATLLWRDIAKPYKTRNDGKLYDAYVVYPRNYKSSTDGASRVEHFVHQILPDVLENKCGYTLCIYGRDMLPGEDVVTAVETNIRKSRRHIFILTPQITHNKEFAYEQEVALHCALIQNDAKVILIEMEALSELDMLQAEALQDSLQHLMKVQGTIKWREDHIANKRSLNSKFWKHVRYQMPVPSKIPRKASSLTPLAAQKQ

One assay concerns the target ST2 on human umbilical vein endothelial cells (human) (UniProt Q01638). Put plainly: cell-based or functional assay.
Molecule B1 came in with an IC50 (nM) Untreated, HUVEC NFkB translocation assay of 0.19 nM.
The same measure, in the same setting: for B2 the value was 0.1 nM.
The same measure, in the same setting: for B3 the value was 0.12 nM.
In turn, B4 yielded an IC50 (nM) Untreated, HUVEC NFkB translocation assay of 0.14 nM.
The molecule B5 returned an IC50 (nM) Untreated, HUVEC NFkB translocation assay of 0.39 nM.
In the case of B6, the IC50 (nM) Untreated, HUVEC NFkB translocation assay came to 0.08 nM.
In the case of B7, the IC50 (nM) Untreated, HUVEC NFkB translocation assay is 0.28 nM.
In the case of B8, the IC50 (nM) Untreated, HUVEC NFkB translocation assay stood at 0.22 nM.
Molecule B9 registered an IC50 (nM) Untreated, HUVEC NFkB translocation assay of 0.21 nM.
In turn, B10 returned an IC50 (nM) Untreated, HUVEC NFkB translocation assay of 0.2 nM.
In turn, B11 registered an IC50 (nM) Untreated, HUVEC NFkB translocation assay of 0.16 nM.
The same measure, in the same setting: for B12 the value was 0.17 nM; for B13, 0.61 nM.
The molecule B14 showed an IC50 (nM) Untreated, HUVEC NFkB translocation assay of 0.17 nM.

For the next assay, the target named is Human IL-33 (Axxora/Adipogen AG-40B-0038) (human) (UniProt O95760). Put plainly: HTRF epitope competition: purified scFv against IL330101 IgG for biotinylated human IL-33.
In the case of B15, the IC50 (read off the curve) came out at 7000 pM.

The next assay concerns the target T1, Human IL-33 Flag®His (human). Put plainly: HTRF competition: purified scFv titrated against human ST2-Fc for FLAG-His human IL-33.
B16 yielded an IC50 (read off the curve) of 100000 pM.

These data come from patent publication US20200353078A1.
